Reference: US11622990 (FUDAN UNIVERSITY, dated 2023)
Ends that are not written are not given here. Fluorescein‑5‑maleimide = reacted with thiol of C-terminal Cys

Experiments:
[1] = biological target: T1, Recombinant human glucose-regulated protein GRP78 (human, UniProt P11021 19-654, limits assumed); assay: SPR (Biacore T200), recombinant human GRP78 coupled to a CM5 chip, peptide injected at 0.3125-20 µM
T1 construct: also called Bip

[2] = biological target: T2, GRP78 on the surface of glioma cell U87 (UniProt P11021 19-654, limits assumed); assay: confocal microscopy of U87 cells, 5 µM labelled peptide, 4 h, 37 °C (uptake)
T2 construct: whole, on cells; also called receptor protein on the cell surface; GRP78 protein
T2 sequence (P11021 19-654 limits assumed): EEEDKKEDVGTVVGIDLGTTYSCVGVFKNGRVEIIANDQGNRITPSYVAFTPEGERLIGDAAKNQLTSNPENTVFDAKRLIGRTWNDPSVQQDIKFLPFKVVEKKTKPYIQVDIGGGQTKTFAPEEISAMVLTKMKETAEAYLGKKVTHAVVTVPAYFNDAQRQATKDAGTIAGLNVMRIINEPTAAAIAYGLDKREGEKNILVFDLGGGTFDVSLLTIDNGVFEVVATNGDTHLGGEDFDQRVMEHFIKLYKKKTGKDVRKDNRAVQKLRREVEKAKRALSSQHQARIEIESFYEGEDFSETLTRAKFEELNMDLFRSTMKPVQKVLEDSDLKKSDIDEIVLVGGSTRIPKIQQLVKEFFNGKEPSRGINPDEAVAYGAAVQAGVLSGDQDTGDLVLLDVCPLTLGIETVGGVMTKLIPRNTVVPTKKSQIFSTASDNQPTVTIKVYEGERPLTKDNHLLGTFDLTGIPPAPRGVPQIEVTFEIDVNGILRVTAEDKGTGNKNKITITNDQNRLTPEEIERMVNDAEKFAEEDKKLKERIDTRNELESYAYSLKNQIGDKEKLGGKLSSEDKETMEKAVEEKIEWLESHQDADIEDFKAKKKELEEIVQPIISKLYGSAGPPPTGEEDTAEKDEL

[3] = biological target: T3, GRP78 on the surface of HUVEC cells; assay: confocal microscopy of HUVEC cells, 5 µM labelled peptide, 4 h, 37 °C (uptake)
T3 construct: also called GRP78 on human umbilical vein endothelial cells
T3 sequence (chain, as listed by the source limits assumed): as the sequence (P11021 19-654 limits assumed) above

T1 sequence (P11021 19-654 limits assumed): as above

Kd [1] | koff [1] | binding result [2] | binding result [3] | Binder
2700 nM | 0.019 s⁻¹ |  |  | SNTRVAP [LVAP (L-configuration peptide SNTRVAP)]
 |  | binds | binds | SNTRVAPC(Fluorescein‑5‑maleimide) (also called Fluorescein-labeled ^LVAP) [LVAP-Fluorescein]
